In patent publication US8124835B2, “Acyl-coa-dependent diacylglycerol acyltransferas 1 (DGAT1) gene from Tropaeolum majus, protein encoded thereby and uses thereof” (National Research Council of Canada, priority 2006, dated 2012):

What was measured:
DGAT activity [1] = assay: TmDGAT1 expressed in Sf9 insect cells, DGAT assay of membrane fractions; format: biochemical, Tropaeolum majus; conditions: Sf9 total membrane fraction (100,000×g pellet), 48 hours; sn-1,2-diolein + [1-14C]oleoyl-CoA
Procedure: FIG. 7. Expression of T. majus DGAT1 in baculovirus insect cells. TmDGAT1 activity was determined using membranes isolated from insect cells infected with wild type baculovirus (Control) and TmDGAT1 recombinant baculovirus in the presence of sn-1,2-diolein and [1-^14C]oleoyl-CoA.
The coding region of TmDGAT1 (SEQ. ID. NO: 2) was sub-cloned into pFastBAC for expression of the protein in an insect cell expression system (Bac-to-Bac baculovirus expression system, Invitrogen). Escherichia coli DH10Bac cells were transformed with the construct to generate recombinant bacmid DNA, and then the bacmid DNA was isolated and used to transfect Sf9 insect cells. The virus stock harvested from the transfected cells was used to re-infect fresh Sf9 insect cells. Insect cells (2.5×10^6 per 25 cm^2 dish) were infected with virus and were collected at 48 h by centrifugation and washed twice with PBS (Hobbs et al., 1999). […]
DGAT assays were conducted at pH 7.4, with shaking at 100 rev/min in a water bath at 30° C. for 60 min. […] The ^14C-labelled TAGs were isolated by TLC on silica gel G plates developed in hexane:diethyl ether:acetic acid (70:30:1 v/v/v/), the radiolabelled TAG bands visualized on a Bioscan AR-2000 radio-TLC scanner using Win-Scan 2D© software (Bioscan Inc., Washington D.C., USA) and the bands scraped and quantified as described by Taylor et al. (1991). […]

DGAT activity [2] = assay: Substrate preference of recombinant TmDGAT1 expressed in yeast H1246MATα; format: biochemical, Tropaeolum majus
Procedure: FIG. 8. Expression of TmDGAT1 in yeast mutant H1246 MATα. DGAT assays were performed on cell lysates of yeast quadruple mutant (DGAT-, PDAT-, ASAT1^−, ASAT2^−) strain:H1246 MATα transformed with pYES2.1/V5-His-TOPO plasmid only (Control) and TmDGAT1/pYES2.1 in the presence of ^14C-labeled 16:0-, 18:0-, 18:1-, eicosenoyl-(20:1 Δ11) and 22:1 acyl-CoAs and sn-1,2-diolein (18:1 DAG) or sn-1,2-dierucin (22:1 DAG). The enzyme activity is scarcely detected in the yeast strain harboring the empty control vector, and has been subtracted from the enzyme activities detected from the H1246MATα strain expressing the TmDGAT1.
The TmDGAT1 ORF (SEQ. ID. NO: 2) in pYES2.1/V5-His-TOPO plasmid was transformed into a quadruple yeast mutant H1246MATα (Sandager et al, 2002) using the S.c. EasyComp™ transformation Kit (Invitrogen). Yeast cells transformed with pYES2.1/V5-His-TOPO plasmid only were used as a control. Transformants were selected by growth on synthetic complete medium lacking uracil (SC-ura), supplemented with 2% (w/v) glucose. The colonies were transferred into liquid SC-ura with 2% (w/v) glucose and grown at 28° C. overnight. The overnight cultures were diluted to an OD of 0.4 in induction medium (SC-ura+2% Galactose+1% Raffinose), and were induced for 24-36 hours at 28° C. Cells were collected and broken using glass beads. The crude protein concentration in the lysates was normalized using the Biorad assay based on the method of (Bradford, 1976) and assayed for DGAT activity. DGAT assays were conducted at pH 7.4, with shaking at 100 rev/min in a water bath at 30° C. for 60 min. […] The ^14C-labelled TAGs were isolated and counted as described above for insect cell expression.
H1246MATα yeast cells harboring an empty pYES2.1 vector plasmid were used as a control. […] In both cases, the lowest level of TAG was detected when using the saturated 16:0-acyl-CoA. […]

[3] = acceptor sn-1,2-diolein or sn-1,2-dierucin

B1: TmDGAT1: Tropaeolum majus acyl-CoA-dependent diacylglycerol acyltransferase 1, 518 amino acids (SEQ ID NO: 3), encoded by ORF SEQ ID NO: 2 (protein, listed as Tropaeolum majus)
chain: MAVAESSQNTTTMSGHGDSDLNNFRRRKPSSSVIEPSSSGFTSTNGVPATGHVAENRDQDRVGAMENATGSVNLIGNGGGVVIGNEEKQVGETDIRFTYRPSFPAHRRVRESPLSSDAIFKQSHAGLFNLCIVVLIAVNSRLIIENLMKYGWLIDTGFWFSSRSLGDWSIFMCCLTLPIFPLAAFIVEKLVQRNHISELVAVLLHVIVSTAAVLYPVIVILTCDSVYMSGVVLMLFGCIMWLKLVSYAHTSSDIRTLAKSGYKGDAHPNSTIVSCSYDVSLKSLAYFMVAPTLCYQPSYPRSSCIRKGWVVRQFVKLIVFIGLMGFIIEQYINPIVRNSKHPLKGDFLYAIERVLKLSVPNLYVWLCMFYSFFHLWLNILAELLRFGDREFYKDWWNAKTVAEYWKMWNMPVHRWMVRHLYFPCLRNGIPKEGAIIIAFLVSGAFHELCIAVPCHVFKLWAFIGIMFQVPLVLITNYLQEKFSNSMVGNMIFWFIFCILGQPMCVLLYYHDLINLKEK
- DGAT activity relative to membrane fraction from control cells infected with vector only (DGAT activity [1]): about 10 fold
- DGAT activity using 20:1-CoA compared to 18:1-CoA (DGAT activity [2]; [3]): about 2 fold
- DGAT activity using 22:1-CoA compared to 18:1-CoA (DGAT activity [2]; [3]): ~3 fold
- activity with radiolabeled free fatty acids as acyl donors (DGAT activity [2]; data not shown): no activity
